The record followed here is patent publication US6887705B1, “Tyrosine phosphorylated cleavage furrow-associated proteins (PSTPIPs)” (Genentech, Inc., priority 1997, dated 2005).

Assay [1] deals with T1, PST PIP missing 75 amino acids from the N-terminus (delta 75), C-terminal FLAG (murine, UniProt P97814 76-415).
T1 construct: The 5' primer (N-coil.3, Ser76) carries ATGATG before the first PSTPIP codon
T1 sequence: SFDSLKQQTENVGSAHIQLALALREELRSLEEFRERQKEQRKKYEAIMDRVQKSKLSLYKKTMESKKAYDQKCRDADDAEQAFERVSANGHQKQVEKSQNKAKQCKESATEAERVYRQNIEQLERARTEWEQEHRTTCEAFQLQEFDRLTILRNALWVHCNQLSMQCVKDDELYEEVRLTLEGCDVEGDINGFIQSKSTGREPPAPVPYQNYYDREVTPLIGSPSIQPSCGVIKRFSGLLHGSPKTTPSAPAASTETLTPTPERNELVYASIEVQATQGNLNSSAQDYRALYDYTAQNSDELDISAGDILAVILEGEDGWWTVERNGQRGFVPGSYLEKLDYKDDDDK
Put plainly: GST-PTP HSCF pulldown of in vitro translated PST PIP deletion mutant. An excerpt:
(§1) FIG. 9. N Terminal Truncations Result in a Loss of PST PIP Binding to PTP HSCF. Full length PST PIP (Spencer et al., *J. Cell. Biol.*, 138(4):845–860 (1997)) and forms missing 25 (delta 25), 50 (delta 50) and 75 (delta 75) amino acids from the N-terminus were transcribed and translated in vitro. The upper panel illustrates immunoprecipitation of the proteins with an antibody directed against a PST PIP C-terminal FLAG epitope. The lower panel illustrates the same proteins precipitated with a GST fusion protein containing the C-terminal 149 amino acids of PTP HSCF (Cheng et al., *Oncogene* 13:2275–2279 (1996)) including the C-terminal proline rich binding site.
(§2) In vitro binding analyses between various PTP HSCF and PST PIP constructs were performed as previously described (Spencer et al, (1997), supra). Briefly, plasmids were transcribed and translated in vitro using the TnT Rabbit Reticulocyte Lysate System (Promega). Samples were diluted in 50 mM HEPES, pH 7.2, 1% triton X-100, 10% glycerol, 100 mM NaCl, and 2 µg/ml each of leupeptin, pepstatin, aprotinin and PMSF (lysis buffer). Samples were than reacted with GST fusion proteins at various concentrations, and the bound proteins were centrifuged using glutathione-sepharose beads and analyzed on SDS polyacrylamide gels. […]

Assay [2] concerns the target T2, PST PIP missing 50 amino acids from the N-terminus (delta 50), C-terminal FLAG (murine, UniProt P97814 51-415).
T2 construct: The 5' primer (N-coil.2, Glu51) carries ATGATG before the first PSTPIP codon
T2 sequence: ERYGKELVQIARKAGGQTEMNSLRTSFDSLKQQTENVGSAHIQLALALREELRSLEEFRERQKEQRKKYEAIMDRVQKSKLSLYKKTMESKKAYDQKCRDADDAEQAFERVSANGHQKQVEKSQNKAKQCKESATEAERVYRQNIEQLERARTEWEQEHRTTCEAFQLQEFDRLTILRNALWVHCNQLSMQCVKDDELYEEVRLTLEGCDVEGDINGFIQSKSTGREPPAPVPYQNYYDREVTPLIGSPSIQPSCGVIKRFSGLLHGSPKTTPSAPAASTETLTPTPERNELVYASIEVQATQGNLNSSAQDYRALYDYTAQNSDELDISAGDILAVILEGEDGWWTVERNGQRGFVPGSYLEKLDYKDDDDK
Described as above.
Source text: as §1, §2

For assay [3], the target named is T3, W232A mutant of PST PIP, C-terminal FLAG (murine, UniProt P97814 1-415).
T3 construct: In vitro translated or expressed in COS cells; also called W232A PST PIP; PST PIP with an alanine replacement mutation at tryptophan232
T3 sequence: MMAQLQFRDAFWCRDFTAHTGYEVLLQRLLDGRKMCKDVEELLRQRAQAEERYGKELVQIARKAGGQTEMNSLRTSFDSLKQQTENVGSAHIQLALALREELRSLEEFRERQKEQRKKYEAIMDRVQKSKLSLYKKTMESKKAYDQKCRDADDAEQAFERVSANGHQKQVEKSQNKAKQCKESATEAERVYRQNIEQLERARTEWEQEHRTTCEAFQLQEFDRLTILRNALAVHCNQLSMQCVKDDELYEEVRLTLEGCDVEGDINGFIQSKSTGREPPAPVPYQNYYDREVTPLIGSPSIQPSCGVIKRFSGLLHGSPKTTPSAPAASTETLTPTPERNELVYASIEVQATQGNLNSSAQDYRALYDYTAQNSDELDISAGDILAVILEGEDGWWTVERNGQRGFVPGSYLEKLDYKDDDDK
Put plainly: GST-PTP HSCF pulldown of in vitro translated PST PIP mutant. The protocol:
as §2, with “gels. C-terminally-derived peptide inhibition studies were performed by incubating the GST fusion protein binding reactions in the presence of 10 µg/ml of the indicated peptides. Peptides were produced by FMOC-protected amino acids as previously described (Spencer et al, (1997), supra). In vivo interactions between various forms of PTP HSCF and PST PIP were also performed as previously described (Spencer et al, (1997), supra). Briefly, COS cells were transfected with various constructs, and after 48 hours, lysates were prepared and immunoprecipitated with antibodies to either the FLAG epitope contained at the C-terminus of PST PIP or an HA epitope contained at the N-terminus of PTP HSCF.” for “gels.”

The target of assay [4] is T4, double mutant of PTP HSCF with both R444 and W450 mutated to alanine, HA tagged (UniProt Q61152 1-453).
T4 construct: range 1-453; also called R+W; R444+W450
T4 sequence (looked up): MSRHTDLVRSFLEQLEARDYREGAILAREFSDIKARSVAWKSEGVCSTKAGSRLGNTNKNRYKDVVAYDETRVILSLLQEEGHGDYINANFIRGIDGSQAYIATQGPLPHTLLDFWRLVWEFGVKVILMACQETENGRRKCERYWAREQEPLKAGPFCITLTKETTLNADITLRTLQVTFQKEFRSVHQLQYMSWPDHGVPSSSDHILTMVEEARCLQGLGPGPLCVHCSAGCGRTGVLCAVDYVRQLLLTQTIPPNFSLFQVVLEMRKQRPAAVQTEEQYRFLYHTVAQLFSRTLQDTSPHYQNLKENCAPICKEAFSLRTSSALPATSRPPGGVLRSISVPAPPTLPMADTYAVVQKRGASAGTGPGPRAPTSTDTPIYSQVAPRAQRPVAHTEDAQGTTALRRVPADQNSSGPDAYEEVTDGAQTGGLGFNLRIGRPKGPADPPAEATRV
Put plainly: anti-HA immunoprecipitation from co-transfected COS cells, blot with anti-PST PIP. The protocol: Multiple bands precipitated with the GST PST PIP fusion protein are apparently C-terminal proteolyzed products of the PTP. Also shown are GST PST PIP precipitations (10 μg/ml) performed on a double mutant of PTP HSCF (R+W) with both residues $R444$ and $W450$ mutated to alanine (bottom panel FIG. 14 A/2). B. COS cells were co-transfected with a 10:1 ratio of plasmids encoding hemagglutinin (HA) tagged PTP HSCF with the illustrated alanine substitutions or a mutant of PTP HSCF deleted for the C-terminal 24 amino acids (PTP $HSCFD24$) and wild type PST PIP with a C-terminal FLAG epitope tag, respectively. Transfected cell lysates were immunoprecipitated with anti-HA monoclonal antibodies and the precipitates were blotted with anti-PST PIP polyclonal antibody to detect the relative amounts of PST PIP complexed with either wild type or different mutant forms of PTP HSCF. […] Equal expression of PSTPIP was determined by immunoprecipitating lysates with anti-FLAG monoclonal antibody and blotting with anti-PST PIP polyclonal antibody.
In vitro binding analyses between various PTP HSCF and PST PIP constructs were performed as previously described (Spencer et al, (1997), supra). […] Samples were than reacted with GST fusion proteins at various concentrations, and the bound proteins were centrifuged using glutathione-sepharose beads and analyzed on SDS polyacrylamide gels. […]

Where a chain is given by its changes, count along the chain named.

B1: GST-PST-rich+CTH PTP HSCF (GST fusion of PTP HSCF amino acids 304-453) (other, UniProt Q61152 304-453, looked up)
chain: QNLKENCAPICKEAFSLRTSSALPATSRPPGGVLRSISVPAPPTLPMADTYAVVQKRGASAGTGPGPRAPTSTDTPIYSQVAPRAQRPVAHTEDAQGTTALRRVPADQNSSGPDAYEEVTDGAQTGGLGFNLRIGRPKGPRDPPAEWTRV
notes: range 304-453; the methods give amino acids 304-453; also called GST-PTP HSCF; GST PTP HSCF; not shown: glutathione S-transferase encoded by pGEX-4T-2 (Pharmacia)
Take B1: the binding result in assay [1], in assay [2] and in assay [3] was “no binding” in each case.

B2: full-length PSTPIP tagged with the FLAG epitope at the C-terminus (other)
chain: T3 sequence with A232W
notes: In vitro transcribed/translated in rabbit reticulocyte lysate, or expressed in COS cells
On to B2, for which the binding result in assay [4] is reported as “no binding”.
